Experimental data taken from patent US20090281024A1 (RAPTOR PHARMACEUTICALS, published 2009).

Tests used:
RAP d3 E251K = target: T1, RAP d3 E251K (human, UniProt P30533 235-353); experiment: solid-phase binding assay: LRP2 CR89 coated on the plate, d3 ligand in solution, anti-RAP detection, absorbance
T1 construct: range 201-319 (mature RAP numbering); Forward mutant of m1; same construct; also called RAP E251K; not shown: N-terminal hexahistidine and S-peptide tags of pET30(+)a
T1 sequence (looked up): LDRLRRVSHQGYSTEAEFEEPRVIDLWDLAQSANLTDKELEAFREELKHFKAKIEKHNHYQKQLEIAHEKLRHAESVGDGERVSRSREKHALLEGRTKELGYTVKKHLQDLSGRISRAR
Procedure: (§1) Solid phase binding assays—Purified, refolded CR protein (1 μg) was bound to Nunc Maxisorp™ 96-well plates in TBS pH 8 supplemented with 5 mM CaCl₂ (TBSC) overnight at 4° C. Wells were washed with TBSC and then blocked with TBSC containing 2% bovine serum albumin (BSA). RAP ligands were then incubated with the immobilized receptor at a range of concentrations for 2 hours in the above blocking buffer supplemented with 0.05% Tween-20 at room temperature. Control wells contained no added ligand. As an additional control, to determine whether the absence of calcium affected binding, 10 mM EGTA was included in the incubation medium for some samples. Wells were washed with TBSTC and bound ligands detected with polyclonal anti-RAP (BP41/42, 1:1,000, BioMarin). Excess primary antibody was removed and wells washed before incubation with the secondary antibody, HRP-conjugated goat anti rabbit IgG (Bio-Rad). After washing, TMB substrate solutions (Bio-Rad) were added to detect HRP. Color development was stopped with 1N HCl. Absorption at 450 nm was measured with a microplate spectrophotometer (Molecular Devices). Data were plotted and Kd values derived by non-linear regression with the assumption of single-site binding (GraphPad Prism).
(§2) Next, the binding of RAP d3 and MegaRAP1 d3 proteins to LRP1 CR3-5 and LRP2 CR89 was assessed. […] In all cases, 10 mM EGTA prevented binding of both RAP d3 and MegaRAP1 d3 to CR proteins. Since calcium was the only divalent metal ion present in the binding buffer, this observation is consistent with both RAP d3 and MegaRAP1 d3 binding to calcium-loaded CR pairs. […] Therefore, wild-type RAP d3 and MegaRAP1 d3 have inverted binding preferences for these two receptor fragments.

RAP d3 K270E = target: T2, RAP d3 K270E (human, UniProt P30533 235-353); experiment: as above
T2 construct: range 201-319 (mature RAP numbering); Forward mutant of m1; same construct; also called RAP K270E; not shown: N-terminal hexahistidine and S-peptide tags of pET30(+)a
T2 sequence (looked up): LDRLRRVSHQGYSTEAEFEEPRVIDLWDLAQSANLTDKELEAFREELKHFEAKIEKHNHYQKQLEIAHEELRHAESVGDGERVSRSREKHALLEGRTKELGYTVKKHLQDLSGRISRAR
Procedure: as §1, §2

[1] = target: T3, RAP d3 E251K, K256A, K270E (human, UniProt P30533 235-353); experiment: solid-phase assay, coated CR protein
T3 construct: range 201-319 (mature RAP numbering); Forward mutant of m1; same construct; also called RAP E251K, K256A, K270E; not shown: N-terminal hexahistidine and S-peptide tags of pET30(+)a
T3 sequence (looked up): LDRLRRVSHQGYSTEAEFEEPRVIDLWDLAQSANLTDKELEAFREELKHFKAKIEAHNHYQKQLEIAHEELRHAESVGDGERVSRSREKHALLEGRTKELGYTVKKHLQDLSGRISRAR
Procedure: (§3) Wells were washed with TBSTC and bound ligands detected with polyclonal anti-RAP (BP41/42, 1:1,000, BioMarin). Excess primary antibody was removed and wells washed before incubation with the secondary antibody, HRP-conjugated goat anti rabbit IgG (Bio-Rad). After washing, TMB substrate solutions (Bio-Rad) were added to detect HRP. Color development was stopped with 1N HCl. Absorption at 450 nm was measured with a microplate spectrophotometer (Molecular Devices). Data were plotted and Kd values derived by non-linear regression with the assumption of single-site binding (GraphPad Prism).
as §2

MegaRAP1 d3 [2] = target: T4, MegaRAP1 d3 (human, UniProt P30533 235-353); experiment: solid-phase assay, coated CR protein
T4 construct: range 201-319 (mature RAP numbering); d3 of the variant selected on LRP2 CR89; also called RAPv2A d3; RAP v2A; not shown: N-terminal hexahistidine and S-peptide tags of pET30(+)a
T4 sequence (looked up): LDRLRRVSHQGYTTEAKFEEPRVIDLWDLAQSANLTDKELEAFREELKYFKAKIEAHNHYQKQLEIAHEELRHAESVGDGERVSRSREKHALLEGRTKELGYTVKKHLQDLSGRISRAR
Procedure: as §3, §2

MegaRAP1 d3 [3] = target: T4, MegaRAP1 d3; experiment: solid-phase assay, coated CR protein; remark: listed apart in the source
Procedure: as §3
One premise of this work was that amino acids at A, C, A′ and C′ within the calcium-binding loops of a CR pair were key determinants of binding affinity for RAP and would be similarly important for binding of RAP variants. To test this idea, mutant LRP2 CR89 were prepared in which the native, non-canonical residues at these positions were sequentially substituted with the non-native, canonical residues. As defined above, the A, C, A′, C′ string for LRP2 CR89 is YVWR. Mutants included LRP2 CR89Y1042W (WVWR), LRP2 CR89V1047D (YDWR), LRP2 CR89R1088D (YVWD), LRP2 CR89V1047D R1088D (YDWD), LRP2 CR89 Y1042W V1047D R1088D (WDWD), LRP2 CR89Y1042W V1047D (WDWR), LRP2 CR89Y1042W R1088D (WVWD). Binding to both RAP d3 and MegaRAP1 d3 were measured for each LRP2 CR89 mutant by solid-phase assay. […] The A′ position in LRP2 CR89 is a tryptophan, the canonical residue for wild-type RAP d3 binding, and was not mutated in our studies. […] We did see a small increase in binding of RAP d3 to the WVWD and WDWD combinations at A, C, A′ and C′.

MegaRAP1 d3 [4] = target: T4, MegaRAP1 d3; experiment: solid-phase assay, coated CR protein (same value as Table 1)

B1: LRP2 CR89 (receptor)
chain: not shown
notes: domain: CR89; Limits of the fragment are set only by the primers LRP2CR8F and LRP2CR9R; also called YVWR; L2 CR89; not shown: N-terminal hexahistidine and S-peptide tags of pET30(+)a
RAP d3 E251K
  binding result: no binding (tested: 100 nM)
RAP d3 K270E
  binding result: no binding (tested: 100 nM)
[1]
  Kd: 114 nM
MegaRAP1 d3 [2]
  Kd: 38 nM
MegaRAP1 d3 [3]
  Kd: 33 nM
MegaRAP1 d3 [4]
  Kd: 38 nM
